According to publication PMC12422189, “Molecular exaptation by the integrin αI domain” (Science Advances, 2025):

How the values were obtained:
[1] = target: integrin αLβ2 with the αL internal ligand IEGT replaced by VDGT (UniProt P20701); experiment: flow cytometry on cells; HEK293T cells transfected with αL variants and β2; 20 mM tris-HCl pH 7.4, 150 mM NaCl, 1 mM MgCl2 + 1 mM MnCl2; purified His-tagged ICAM-1 ectodomain at 20 μg/ml, 1 hour at 37°C; read with iFluor 647 anti-His tag antibody; percent positive cells normalized to wild type
Sequence of integrin αLβ2 with the αL internal ligand IEGT replaced by VDGT (P20701 26-1170, chain 1 of 2): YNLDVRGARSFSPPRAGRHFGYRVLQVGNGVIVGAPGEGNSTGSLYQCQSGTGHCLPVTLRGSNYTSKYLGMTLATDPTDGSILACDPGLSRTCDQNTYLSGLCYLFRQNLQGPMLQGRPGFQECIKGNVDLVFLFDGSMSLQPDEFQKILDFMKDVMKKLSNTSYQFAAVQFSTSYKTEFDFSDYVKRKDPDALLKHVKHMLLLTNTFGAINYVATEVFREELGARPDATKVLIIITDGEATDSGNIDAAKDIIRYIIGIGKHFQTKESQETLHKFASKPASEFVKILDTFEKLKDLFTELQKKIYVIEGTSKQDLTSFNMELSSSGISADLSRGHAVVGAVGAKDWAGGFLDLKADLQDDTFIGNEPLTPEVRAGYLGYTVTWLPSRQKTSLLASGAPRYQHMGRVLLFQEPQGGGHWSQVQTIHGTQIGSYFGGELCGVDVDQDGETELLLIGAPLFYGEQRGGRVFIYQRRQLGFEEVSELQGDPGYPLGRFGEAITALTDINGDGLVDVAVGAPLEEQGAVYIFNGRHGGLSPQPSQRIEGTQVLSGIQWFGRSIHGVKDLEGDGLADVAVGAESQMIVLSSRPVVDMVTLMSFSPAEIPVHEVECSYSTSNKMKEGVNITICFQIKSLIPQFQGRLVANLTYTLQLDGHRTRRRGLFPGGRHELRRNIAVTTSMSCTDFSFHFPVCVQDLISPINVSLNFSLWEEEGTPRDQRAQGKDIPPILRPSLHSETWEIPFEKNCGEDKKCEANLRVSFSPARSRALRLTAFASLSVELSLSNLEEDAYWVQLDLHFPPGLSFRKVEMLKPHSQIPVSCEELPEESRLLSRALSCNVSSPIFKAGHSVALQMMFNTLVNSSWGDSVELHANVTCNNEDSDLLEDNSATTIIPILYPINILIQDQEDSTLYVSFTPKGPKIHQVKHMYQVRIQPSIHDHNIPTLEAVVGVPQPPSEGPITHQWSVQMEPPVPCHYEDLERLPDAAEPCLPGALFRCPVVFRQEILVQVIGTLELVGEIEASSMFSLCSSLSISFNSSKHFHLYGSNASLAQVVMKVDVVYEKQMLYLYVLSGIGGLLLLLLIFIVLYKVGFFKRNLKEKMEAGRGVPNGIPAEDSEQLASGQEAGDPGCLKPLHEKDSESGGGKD
Sequence of integrin αLβ2 with the αL internal ligand IEGT replaced by VDGT (P05107 23-769, chain 2 of 2, further chain): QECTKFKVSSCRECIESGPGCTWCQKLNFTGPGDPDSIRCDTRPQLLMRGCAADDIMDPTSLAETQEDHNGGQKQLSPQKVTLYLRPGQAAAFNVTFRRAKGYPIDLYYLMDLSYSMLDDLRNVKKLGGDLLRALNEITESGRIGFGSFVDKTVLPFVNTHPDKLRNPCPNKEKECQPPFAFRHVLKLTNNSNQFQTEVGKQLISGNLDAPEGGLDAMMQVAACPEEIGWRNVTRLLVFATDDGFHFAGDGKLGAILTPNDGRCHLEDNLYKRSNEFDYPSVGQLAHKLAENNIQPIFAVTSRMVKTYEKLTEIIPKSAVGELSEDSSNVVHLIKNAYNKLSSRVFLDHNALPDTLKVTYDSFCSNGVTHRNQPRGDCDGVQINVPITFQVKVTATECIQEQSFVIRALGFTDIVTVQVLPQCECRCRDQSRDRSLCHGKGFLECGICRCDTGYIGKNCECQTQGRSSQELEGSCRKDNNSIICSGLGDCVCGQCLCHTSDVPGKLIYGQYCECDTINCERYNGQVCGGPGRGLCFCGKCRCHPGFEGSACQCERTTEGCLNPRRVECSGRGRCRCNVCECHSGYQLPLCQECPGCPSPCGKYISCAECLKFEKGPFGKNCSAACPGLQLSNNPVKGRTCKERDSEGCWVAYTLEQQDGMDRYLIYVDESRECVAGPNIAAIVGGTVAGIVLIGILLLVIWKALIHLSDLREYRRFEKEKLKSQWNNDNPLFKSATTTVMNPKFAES

[2] = target: T1, Fc-tagged E-cadherin ectodomain (UniProt P12830 155-698); experiment: BLI; Octet RED, 25°C; Fc-tagged E-cadherin ectodomain loaded on Protein A biosensors; αEβ7 in solution, two-fold series 500 to 16.125 nM; activating buffer with 0.1% BSA and 0.02% Tween 20; 1:1 model, global fit of three replicates; settings: both partners purified
T1 construct: Fc tag amplified from Addgene plasmid 145164; E-cadherin insert a gift from B. Gumbiner; Captured on Protein A biosensors by the Fc; also called Human Fc-tagged E-cadherin ectodomain; source: ExpiCHO, secreted, purified (HiTrap Protein G, Superdex 200); not shown: Fc (human), C-terminal, kept
T1 sequence (looked up): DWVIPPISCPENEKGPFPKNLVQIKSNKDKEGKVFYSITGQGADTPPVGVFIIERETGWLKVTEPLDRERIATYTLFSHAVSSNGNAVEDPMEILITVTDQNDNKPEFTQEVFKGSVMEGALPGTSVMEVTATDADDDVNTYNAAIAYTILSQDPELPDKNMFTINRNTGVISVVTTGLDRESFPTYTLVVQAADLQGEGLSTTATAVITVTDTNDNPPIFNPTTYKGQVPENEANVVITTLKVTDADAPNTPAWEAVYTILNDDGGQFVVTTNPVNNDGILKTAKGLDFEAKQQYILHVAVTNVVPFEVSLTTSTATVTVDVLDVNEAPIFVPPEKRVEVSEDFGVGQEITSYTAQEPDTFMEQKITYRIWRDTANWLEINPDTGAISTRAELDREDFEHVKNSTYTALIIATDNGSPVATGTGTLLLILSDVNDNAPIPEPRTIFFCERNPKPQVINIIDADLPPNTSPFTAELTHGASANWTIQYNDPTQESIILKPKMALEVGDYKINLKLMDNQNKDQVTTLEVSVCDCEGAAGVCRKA

intercellular adhesion molecule-1 (ICAM-1) ectodomain, His-tagged (from UniProt P05362 28-480) (ligand)
ligand binding, percent of wild type [1]: 60%

B1: integrin αEβ7 (as used for biolayer interferometry) (complex)
chain 1: FNVDVARPWLTPKGGAPFVLSSLLHQDPSTNQTWLLVTSPRTKRTPGPLHRCSLVQDEILCHPVEHVPIPKGRHRGVTVVRSHHGVLICIQVLVRRPHSLSSELTGTCSLLGPDLRPQAQANFFDLENLLDPDARVDTGDCYSNKEGGGEDDVNTARQRRALEKEEEEDKEEEEDEEEEEAGTEIAIILDGSGSIDPPDFQRAKDFISNMMRNFYEKCFECNFALVQYGGVIQTEFDLRDSQDVMASLARVQNITQVGSVTKTASAMQHVLDSIFTSSHGSRRKASKVMVVLTDGGIFEDPLNLTTVINSPKMQGVERFAIGVGEEFKSARTARELNLIASDPDETHAFKVTNYMALDGLLSKLRYNIISMEGTVGDALHYQLAQIGFSAQILDERQVLLGAVGAFDWSGGALLYDTRSRRGRFLNQTAAAAADAEAAQYSYLGYAVAVLHKTCSLSYIAGAPRYKHHGAVFELQKEGREASFLPVLEGEQMGSYFGSELCPVDIDMDGSTDFLLVAAPFYHVHGEEGRVYVYRLSEQDGSFSLARILSGHPGFTNARFGFAMAAMGDLSQDKLTDVAIGAPLEGFGADDGASFGSVYIYNGHWDGLSASPSQRIRASTVAPGLQYFGMSMAGGFDISGDGLADITVGTLGQAVVFRSRPVVRLKVSMAFTPSALPIGFNGVVNVRLCFEISSVTTASESGLREALLNFTLDVDVGKQRRRLQCSDVRSCLGCLREWSSGSQLCEDLLLMPTEGELCEEDCFSNASVKVSYQLQTPEGQTDHPQPILDRYTEPFAIFQLPYEKACKNKLFCVAELQLATTVSQQELVVGLTKELTLNINLTNSGEDSYMTSMALNYPRNLQLKRMQKPPSPNIQCDDPQPVASVLIMNCRIGHPVLKRSSAHVSVVWQLEENAFPNRTADITVTVTNSNERRSLANETHTLQFRHGFVAVLSKPSIMYVNTGQGLSHHKEFLFHVHGENLFGAEYQLQICVPTKLRGLQVVAVKKLTRTQASTVCTWSQERACAYSSVQHVEEWHSVSCVIASDKENVTVAAEISWDHSEELLKDVTELQILGEISFNKSLYEGLNAENHRTKITVVFLKDEKYH
chain 2: ELDAKIPSTGDATEWRNPHLSMLGSCQPAPSCQKCILSHPSCAWCKQLNFTASGEAEARRCARREELLARGCPLEELEEPRGQQEVLQDQPLSQGARGEGATQLAPQRVRVTLRPGEPQQLQVRFLRAEGYPVDLYYLMDLSYSMKDDLERVRQLGHALLVRLQEVTHSVRIGFGSFVDKTVLPFVSTVPSKLRHPCPTRLERCQSPFSFHHVLSLTGDAQAFEREVGRQSVSGNLDSPEGGFDAILQAALCQEQIGWRNVSRLLVFTSDDTFHTAGDGKLGGIFMPSDGHCHLDSNGLYSRSTEFDYPSVGQVAQALSAANIQPIFAVTSAALPVYQELSKLIPKSAVGELSEDSSNVVQLIMDAYNSLSSTVTLEHSSLPPGVHISYESQCEGPEKREGKAEDRGQCNHVRINQTVTFWVSLQATHCLPEPHLLRLRALGFSEELIVELHTLCDCNCSDTQPQAPHCSDGQGHLQCGVCSCAPGRLGRLCECSVAELSSPDLESGCRAPNGTGPLCSGKGHCQCGRCSCSGQSSGHLCECDDASCERHEGILCGGFGRCQCGVCHCHANRTGRACECSGDMDSCISPEGGLCSGHGRCKCNRCQCLDGYYGALCDQCPGCKTPCERHRDCAECGAFRTGPLATNCSTACAHTNVTLALAPILDDGWCKERTLDNQLFFFLVEDDARGTVVLRVRPQEKGADH
modifications: Wild-type αE taken for BLI: the paper assigns wild-type to the E-cadherin complex and RRtoGG (R177G/R178G) only to the Fab complex; the BLI section does not state which was used. Signal peptides …
Kd [2]: 51 ± 7.9 nM
